Data taken from PMC7129694 (Clinical Microbiology and Infection, 2005).

Target: Purified recombinant rClfB protein (clumping factor B of Staphylococcus aureus) (Staphylococcus aureus, UniProt O86476 45-877)
Sequence (O86476 45-877): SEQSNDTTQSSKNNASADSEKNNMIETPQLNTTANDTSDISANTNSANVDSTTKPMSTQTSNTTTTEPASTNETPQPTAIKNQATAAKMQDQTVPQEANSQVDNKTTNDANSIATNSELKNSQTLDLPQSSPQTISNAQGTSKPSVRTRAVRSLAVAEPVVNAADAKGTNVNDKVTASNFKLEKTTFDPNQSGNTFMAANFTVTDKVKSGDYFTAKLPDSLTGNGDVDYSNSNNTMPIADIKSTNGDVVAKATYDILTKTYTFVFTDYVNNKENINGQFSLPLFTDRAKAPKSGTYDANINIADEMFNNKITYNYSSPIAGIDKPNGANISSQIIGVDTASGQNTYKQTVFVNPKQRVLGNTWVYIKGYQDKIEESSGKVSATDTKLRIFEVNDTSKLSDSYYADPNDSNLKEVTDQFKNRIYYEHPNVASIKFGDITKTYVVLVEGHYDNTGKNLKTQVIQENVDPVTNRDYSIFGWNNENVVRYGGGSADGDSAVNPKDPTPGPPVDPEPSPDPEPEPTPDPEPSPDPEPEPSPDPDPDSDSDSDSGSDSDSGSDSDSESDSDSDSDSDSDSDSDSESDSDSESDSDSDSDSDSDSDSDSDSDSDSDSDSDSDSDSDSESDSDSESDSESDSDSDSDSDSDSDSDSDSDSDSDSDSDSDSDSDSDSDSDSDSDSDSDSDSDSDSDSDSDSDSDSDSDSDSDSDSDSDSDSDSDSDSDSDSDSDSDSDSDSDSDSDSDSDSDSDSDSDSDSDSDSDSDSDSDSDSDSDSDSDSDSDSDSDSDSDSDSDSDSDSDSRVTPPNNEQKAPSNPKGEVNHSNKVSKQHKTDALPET

B1: Purified recombinant human cytokeratin 10 (natural protein, UniProt P13645 1-584, looked up)
chain: MSVRYSSSKHYSSSRSGGGGGGGGCGGGGGVSSLRISSSKGSLGGGFSSGGFSGGSFSRGSSGGGCFGGSSGGYGGLGGFGGGSFRGSYGSSSFGGSYGGIFGGGSFGGGSFGGGSFGGGGFGGGGFGGGFGGGFGGDGGLLSGNEKVTMQNLNDRLASYLDKVRALEESNYELEGKIKEWYEKHGNSHQGEPRDYSKYYKTIDDLKNQILNLTTDNANILLQIDNARLAADDFRLKYENEVALRQSVEADINGLRRVLDELTLTKADLEMQIESLTEELAYLKKNHEEEMKDLRNVSTGDVNVEMNAAPGVDLTQLLNNMRSQYEQLAEQNRKDAEAWFNEKSKELTTEIDNNIEQISSYKSEITELRRNVQALEIELQSQLALKQSLEASLAETEGRYCVQLSQIQAQISALEEQLQQIRAETECQNTEYQQLLDIKIRLENEIQTYRSLLEGEGSSGGGGRGGGSFGGGYGGGSSGGGSSGGGHGGGHGGSSGGGYGGGSSGGGSSGGGYGGGSSSGGHGGSSSGGYGGGSSGGGGGGYGGGSSGGGSSSGGGYGGGSSSGGHKSSSSGSVGESSSKGPRY
Question: How did the Kd turn out when B1 was run?
Answer: 1400 to 1700 nM
